Source: paper PMC9364786 (Journal of Virology, 2022)

Biological target: SARS-CoV-2 subdomain 1 (SBD) protein, D614G (SARS-CoV-2, UniProt P0DTC2)
Assay: ELISA
Conditions: both partners purified

B1: MAb 084-7D (antibody, V domains shown)
VH: EVQLLESGGGLVQPGGSLRLSCAASGFSFSSYAMNWVRQAPGKGLEWVSAISGGGDNIYYADSVKGRFTISRDNYKNTLHLQMKSLRAEDTAVYYCAKDHPSWGSSFLNWGQGILVIVSS
VL: DIQMTQSPSTLSASVGDRVTITCRASQSISSWLAWYQQKPGRAPKLLIYTASNLESGVPSRFSGSGSGTEFSLTISSLQPDDFATYYCQQYNSYSLTFGGGTRVEIK
notes: also called 084-7D MAb
- binding result: no binding (tested: 5 μg/mL starting concentration)
